# ± gives the uncertainty stated by the source.
# Assay: protein stability index of a GFP-peptide fusion (yeast GPS) (PSI 1-4); higher = more stable; sorted into four equal gates, so the index is relative within each strain
# Conditions: pdr5∆
# Method in brief: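 Mid-log yeast cultures in leucine-free medium, carrying a pooled plasmid library, were sorted into four equal gates by their GFP/Cherry fluorescence ratio. Each plasmid expressed Cherry along with GFP fused upstream of a tiled 17-residue yeast protein peptide. Plasmids recovered from each gate were PCR-amplified and Illumina-sequenced, with reads assigned to strains by barcodes. The protein stability index was obtained by summing each gate's read frequency weighted by its gate number.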
row,Sequence,protein stability index
1,KLDLFKYFTELSHYIRQ [MED1],1.44 ± 0.14
2,KLDTEVKNTNANPVVAT [SWP82],2.38 ± 0.082
3,KLHMGTEDVRLAPELNQ [RPL31B],3 ± 0.067
4,KLINIKKFDISNDNLDL [MED1],3.01 ± 0.15
5,KLKNENTDLKDIIQGNP [PCI8],3.21 ± 0.084
6,KLLDNIQEYQLCDNFNH [COR1],2.31 ± 0.091
7,KLLKEKVKLFHGILDDL [MED2],2.93 ± 0.13
8,KLLKGATLYIPKALRFD [FAS2],2.79 ± 0.22
9,KLLLLRINSTDEDLHEF [SRB8],3.06 ± 0.16
10,KLNELDELILEAKERYT [NNF1],3.17 ± 0.096
11,KLNTFNLQTFTHEQWSN [SRP72],2.83 ± 0.078
12,KLNVDQFISSRQFEVKQ [POP1],3.08 ± 0.055
13,KLSDNISICMILCGIQE [YDL116W/NUP84],1.86 ± 0.083
14,KLSDSKTSNIESVPIYS [BRR2],2.64 ± 0.062
15,KLSKEERAARVAAKIAA [RPL5],2.93 ± 0.079
16,KLSKILRTEYGWDSLAS [SNU114],3.17 ± 0.2
17,KLVRESELLGGTFKSTL [QCR2],2.82 ± 0.1
18,KLYFQLFLNTGCLSVLY [SRP68],1.19 ± 0.041
19,KMIILDKLLKRLKEKGS [ISW2],1.32 ± 0.061
20,KMVIAELLPHYPFVTND [YJR042W/NUP85],2.75 ± 0.092
21,KMVKAWNLNQFQIEADF [ASC1],2.67 ± 0.053
22,KNDSAEVRQETQPKAEA [NUT1],3.26 ± 0.11
23,KNDSLEKTINDLQRTQT [YIL149C/MLP2],3.02 ± 0.063
24,KNESATINEMMKHLGRS [FAS2],2.87 ± 0.087
25,KNGLGLNFSTTAPANTT [MED2],2.38 ± 0.047
26,KNKPELYQIDYLGTKVE [PRE1],2.95 ± 0.1

row,Sequence,protein stability index
1,KNLERLRGEYNDLQSET [SMC4],3.4 ± 0.083
2,KNLSLQTGTKPVLKKKA [COR1],3.05 ± 0.095
3,KNMGLVPMKEENLEESF [SSN2],3.38 ± 0.13
4,KNPLFSYVEPVLVASAK [RPL31A],2.57 ± 0.064
5,KNQLRDWIRFVSTKTNE [RPL22A],2.22 ± 0.047
6,KNSDVWFLDHNYIENMN [RPN8],2.44 ± 0.094
7,KNSSTSNTEPIPRSNRH [MED1],3.26 ± 0.12
8,KNTIDFERFPSPSTSAN [RPN4],2.95 ± 0.064
9,KNTMFEKSDALVGVYRQ [SMC1],2.88 ± 0.11
10,KNVETLEEKILAKKTHK [SMC4],2.94 ± 0.077
11,KNVRFRVLQLLAVIMDN [YCG1],1.54 ± 0.06
12,KPDVTYADVGGLDMQKQ [RPT3],3.69 ± 0.14
13,KPETPKGPIIISKNPSN [SIR2],3 ± 0.052
14,KPFLKGLVNHRVGVKLK [SMX3],2.21 ± 0.041
15,KPFRQTKFKVRGSSSLY [RPL38],3.33 ± 0.071
16,KPKMLPIPSKPTLFDLA [SRP68],2.54 ± 0.072
17,KPLGPCDVFWVQKDTAI [POP1],3.03 ± 0.069
18,KPPSSAFNFSFNTSRNV [YAR002W/NUP60],3.18 ± 0.056
19,KPTDATGNTTSKSAFSF [YOR098C/NUP1],2.57 ± 0.088
20,KPVYKGKKLTDEINTAQ [RET1],2.99 ± 0.094
21,KQANNFLWPFKLSNPSG [RPL7A],3.02 ± 0.12
22,KQEIREAVELPLVQADL [RPT3],2.81 ± 0.22
23,KQLIMESQEKYMEPFDL [NSL1],3.31 ± 0.054
24,KQNEQLHVEQLSGGQKT [SMC3],2.71 ± 0.099
25,KQQPTMQANKLDSQETP [SWI3],2.98 ± 0.073
26,KQTDTGITHFRAGMTHE [PRP8],2.61 ± 0.047

row,Sequence,protein stability index
1,KQYLSASFSLKNGDKPH [RPL6A],1.93 ± 0.045
2,KRDQYLKSASKETAPVI [RPL28],2.69 ± 0.12
3,KRGEVVKIIRKSETSGR [RPB5],3.17 ± 0.057
4,KRKTNIIMFVGLQGSGK [SRP54],2.78 ± 0.068
5,KRNKYAAMLTSENAREI [RRP45],3.1 ± 0.063
6,KRNSDKVEYKIVHDDPA [ITC1],2.02 ± 0.083
7,KRPPEIMSTEAHVNKVT [SIR4],2.96 ± 0.086
8,KRQFNNSYWLIILLGVL [ITC1],1.6 ± 0.056
9,KRQYVKQFLTKDLKFPL [RPL20A],2.94 ± 0.061
10,KRRIEEEQEKINSAPDF [ISW2],3.58 ± 0.22
11,KRSGVIETVDDKLKDIV [ITC1],3 ± 0.3
12,KRVPNPNFLGNCNIKDF [SWP82],2.36 ± 0.04
13,KRVTIQKKDIKLARRLR [HHT1],2.87 ± 0.17
14,KRYRLKESQLPRIQRAD [RPB5],3.16 ± 0.15
15,KSESDELQMRSFLKEGD [RRP4],2.71 ± 0.23
16,KSFISKLLGIGDIESLF [SRP54],1.82 ± 0.077
17,KSITLKGRNNESNNKKY [YDL088C/ASM4],3.11 ± 0.066
18,KSLAMEHKSQVVLYNYY [CSN12],1.34 ± 0.071
19,KSLDSIPMSKTIKDLVG [FAS2],2.97 ± 0.092
20,KSLGGGAALKDIEIVRV [FAS2],3.39 ± 0.15
21,KSLHEMNERDWRILKED [PRP28],3.05 ± 0.2
22,KSMNKSAINQYNRRQDK [SNF2],2.63 ± 0.082
23,KSRIVKVVGPRGTLTKN [RPL9A],2.92 ± 0.058
24,KSTASTAAANTEKLSNG [YOR098C/NUP1],3.11 ± 0.16
25,KSTTPYVSALKRINKFL [POP7],1.55 ± 0.036
26,KSVKFVQGLLQNAAANA [RPL17A],2.65 ± 0.068

row,Sequence,protein stability index
1,KSVYETPKITAAEKSFK [SEC65],2.08 ± 0.19
2,KTEDGFVIPALPAAVSK [RPC82],2.41 ± 0.26
3,KTEDPKGGIIASVGDIL [YML031W/NDC1],2.62 ± 0.051
4,KTEPVGTGLQSYLEERE [RPC53],3.24 ± 0.13
5,KTGTKPAAVFAETLKHD [RPL4B],1.95 ± 0.18
6,KTLNLFKQIKSADCELL [RPO31],1.06 ± 0.035
7,KTMKTFVIHIQEKNFQT [RPB5],1.85 ± 0.072
8,KTRNPLTHSTPKNFGIG [RPL8A],2.9 ± 0.058
9,KTTITRVEPETFEIPQA [SWI3],2.81 ± 0.081
10,KTYNKLHYCVSCAIHAR [RPS26A],1.33 ± 0.087
11,KVAQLRQTGPAKINEVY [NSL1],3.04 ± 0.15
12,KVFIRESLSLKNIHISK [YML103C/NUP188],2.21 ± 0.045
13,KVIEEQLKHTKLALAEN [SMC4],1.78 ± 0.1
14,KVISEILTKEVQGSTLA [RPS1A],2.336 ± 0.023
15,KVISEILTREVQNSTLA [RPS1B],2.86 ± 0.1
16,KVKAGVRSANEDGTFSV [RRP43],3.24 ± 0.11
17,KVLAAHTKFEVAIGLNG [RRP40],2.56 ± 0.062
18,KVLARQQLQVLARYLKM [FAS2],1.47 ± 0.083
19,KVLLDSKDVQQIDYKLE [RPS7A],3.15 ± 0.15
20,KVSDPYVPTRNTFNYDV [RPN4],2.39 ± 0.17
21,KVSGVSLLALWKEKKEK [RPS23A],1.59 ± 0.1
22,KVTEKVLTQLTALALKY [CSI1],2 ± 0.029
23,KVVNGNSADAAYAQVEI [FAS2],2.67 ± 0.07
24,KWKPVLSHIVYFLVLSP [RPN5],1.25 ± 0.031
25,KYDRKVPSPTGEYVKEP [RPO21],3.22 ± 0.071

# Source: the supplement of paper PMC9732359
